According to the DeepSol protein solubility set:

Assay: soluble on expression in E. coli; label from the status in PepcDB or PDB records

Soluble on expression in E. coli, soluble:
SNADPKEGVQYEVLSTSLENDGMAPVTEVFALSCGHCRNMENFLPVISQEAGTDIGKMHITFNQSAHIASMFYYAAEMQVDGAPDHAFMEDLFAATQMGEGTTLTEQQEAYSKAFTSRGLVSPYDFNEEQRDTLIKKVDNAKMLSEKSGISSVPTFVVNGKYNVLIGGHDDPKQIADTIRYLLEK
SNAENNQTTTTHSKVISHVFCTGTAKLGSVGPPIGLVDIGVSEVAYIFRVSLPGIEKNQDKIKCEIQREGRVCIQGVIPEIAIPSDTGCLYRMQVQQLCPPGPFSITFNLPGQVDPRLFSPNFRSDGIFEVVVVKLGVRIPTS
SNAGMKAADFTYVTVHGDNSRMSRLKAQYTMLFFYDPDCSNCRKFEKLFAEIPAFVEMVENGTLRVLAIYPDENREEWATKAVYMPQGWIVGWNKAGDIRTRQLYDIRATPTIYLLDGRKRVILKDTSMEQLIDYLATQAGK
SNAKSEIGKYAPFFSLPNAKGEKITRSSDAFKQKSLLINFWASWNDSISQKQSNSELREIYKKYKKNKYIGMLGISLDVDKQQWKDAIKRDTLDWEQVCDFGGLNSEVAKQYSIYKIPANILLSSDGKILAKNLRGEELKKKIENIVEEA
SNAMALGFGMKMELQQFLDALASSPEKIEFETTMAVIEDNYDFTPAAFTNGNTQNDANENNGSCKIFAFGLLNALDKEATLACFGRFYREDVLLHPENNDHQNIRNFMVTGWEGIQFETSALTAK
SNAMENEKILNPIIIQRADPMIYKHNDGYYYFTASVPEYDRIEVRKAKTIEGLRNAEPVDVWRRHESGEMSNLIWAPEIHFINGAWYIYFAAAPDKNIEDDTFNHRMFVIQNENENPFTGNWVEKGRIKTAWESFSLDATIFEHNEKLYYVWAQQDINIKGHSNIYIAEMENPWTLKTKPVMLTKPELEWEIKGFWVNEGPAVLKKNGKIFITYSASATDVNYCIGMLTAEENSNLLDKNSWTKSQTPVFKTSMENHQYGPGHNSFTVSEDGKHDVIVYHARNYTEIKGDPLYDPNRHTRAQIINWREDGTPDFGVPEVDSLEIETPVKA
SNAMKPDIYENNREGILCVYKNEKWLVCIKNWKPDNDIEGIAHLEIHHSTDEQFILSAGKAILITAEKENDKFNIELTLMEKGKVYNVPAECWFYSITQKDTKMMYVQDSNCSMDNSDFCDLSKEEIEYIQTNARKLFEK
SNAMLGGIEAGGTKFVCAVGREDGTIIDRIEFPTKMPDETIEKVIQYFSQFSLQAIGIGSFGPVDNDKTSQTYGTITATPKAGWRHYPFLQTVKNEMKIPVGFSTDVNAAALGEFLFGEAKGLDSCLYITIGTGIGAGAIVEGRLLQGLSHPEMGHIYIRRHPDDVYQGKCPYHGDCFEGLASGPAIEARWGKKAADLSDIAQVWELEGYYIAQALAQYILILAPKKIILGGGVMQQKQVFSYIYQYVPKIMNSYLDFSELSDDISDYIVPPRLGSNAGIIGTLVLAHQALQAEAASGEVRS
SNAMLTFYEYPKCSTCRRAKAELDDLAWDYDAIDIKKNPPAASLIRNWLENSGLELKKFFNTSGQSYRALGLKDKLHQLSLDEAANLLASDGMLIKRPLLVKEGKIVQIGYRTAYEDLDF
SNAMSARKLFYLGPQGTFTHQAAVNAAQELARFEPQGFDLMPMDDVPQILDAAQHGDGWGIVAWENNVEGYVVPNLDALIDAKDLVGFARVGVNVEFDAYVAQGADPAEARIATAHPHGLAQCKRFIAEHRLSTQPATSNAAACRDLIPGEIAFGPAICGELYDITRIGTAIQDYQGAATDFLVLSPRAEVARLLAKPRAEANVEYESVLTLIPLVTGPGVLANLLDVFRDAGLNMTSFISRPIKGRTGTYSFIVTLDAAPWEERFRDALVEIAEHGDWAKTLAVYPRREHPNPPVTSWMLPQGGVRLDDSHLPDDWQNDETVRRELMW
SNAMSVVIYHNPKCSKSRETLALLENQGIAPQVIKYLETSPSVEELKRLYQQLGLNEVRAMMRCKEELYKELNLGDSQLSDDALFAAMAEHPKLIERPIVVCNGQARHGRPPEQVLEIL
